Earlier results as cited in publication PMC4479967 (Journal of molecular neuroscience : MN, 2015).

Conditions: Src-dependent; ref Daulhac et al., 1999

B1: CCK: cholecystokinin (peptide, UniProt P06307 21-115, looked up)
Cholecystokinin: QPVPPADPAGSGLQRAEEAPRRQLRVSQRTDGESRAHLGALLARYIQQARKAPSGRMSIVKNLQNLDPSHRISDRDYMGWMDFGRRSAEEYEYPS
- Effect on ERK-1 and p85/p110-PI-3-K: causes activation
